Experimental data reported in paper PMC5674887.

Tests used:
[1] = target: cNup98 (cysteine-tagged FG domain of human Nup98) (human) (UniProt P52948); test: SPR
[2] = target: cNup153 (cysteine-tagged FG domain of human Nup153) (human) (UniProt P49790); test: SPR
[3] = target: cNup214 (cysteine-tagged FG domain of human Nup214) (human) (UniProt P35658); test: SPR
[4] = target: cNup62 (cysteine-tagged FG domain of human Nup62) (human) (UniProt P37198); test: SPR
karyopherinβ1 (human) = karyopherinβ1 (human) (UniProt Q14974); test: ITC
Chain of karyopherinβ1 (human) (Q14974 whole entry): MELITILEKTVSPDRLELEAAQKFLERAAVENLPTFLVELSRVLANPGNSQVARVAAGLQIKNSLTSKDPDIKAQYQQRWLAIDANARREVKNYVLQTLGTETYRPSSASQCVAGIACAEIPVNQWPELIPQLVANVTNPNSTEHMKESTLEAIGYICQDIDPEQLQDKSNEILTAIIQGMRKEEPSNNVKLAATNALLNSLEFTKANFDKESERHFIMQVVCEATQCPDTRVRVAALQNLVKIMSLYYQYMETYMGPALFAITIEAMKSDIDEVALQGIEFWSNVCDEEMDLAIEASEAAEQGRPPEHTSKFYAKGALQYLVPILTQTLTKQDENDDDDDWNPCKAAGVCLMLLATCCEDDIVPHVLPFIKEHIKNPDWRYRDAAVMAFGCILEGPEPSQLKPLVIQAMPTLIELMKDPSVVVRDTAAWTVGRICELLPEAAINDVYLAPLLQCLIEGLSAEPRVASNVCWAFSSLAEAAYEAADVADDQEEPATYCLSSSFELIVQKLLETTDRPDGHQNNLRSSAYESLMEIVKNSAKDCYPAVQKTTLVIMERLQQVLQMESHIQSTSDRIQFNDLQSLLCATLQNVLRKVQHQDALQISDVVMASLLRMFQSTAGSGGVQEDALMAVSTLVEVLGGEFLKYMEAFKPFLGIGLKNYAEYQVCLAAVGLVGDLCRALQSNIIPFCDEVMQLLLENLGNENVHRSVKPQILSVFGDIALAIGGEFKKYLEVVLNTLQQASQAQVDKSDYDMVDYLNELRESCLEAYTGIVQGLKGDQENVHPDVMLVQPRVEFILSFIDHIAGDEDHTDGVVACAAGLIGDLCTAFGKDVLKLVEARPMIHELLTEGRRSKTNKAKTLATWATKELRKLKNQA

Chain of cNup153 (cysteine-tagged FG domain of human Nup153) (human) (P49790 whole entry, the tested form may be a part): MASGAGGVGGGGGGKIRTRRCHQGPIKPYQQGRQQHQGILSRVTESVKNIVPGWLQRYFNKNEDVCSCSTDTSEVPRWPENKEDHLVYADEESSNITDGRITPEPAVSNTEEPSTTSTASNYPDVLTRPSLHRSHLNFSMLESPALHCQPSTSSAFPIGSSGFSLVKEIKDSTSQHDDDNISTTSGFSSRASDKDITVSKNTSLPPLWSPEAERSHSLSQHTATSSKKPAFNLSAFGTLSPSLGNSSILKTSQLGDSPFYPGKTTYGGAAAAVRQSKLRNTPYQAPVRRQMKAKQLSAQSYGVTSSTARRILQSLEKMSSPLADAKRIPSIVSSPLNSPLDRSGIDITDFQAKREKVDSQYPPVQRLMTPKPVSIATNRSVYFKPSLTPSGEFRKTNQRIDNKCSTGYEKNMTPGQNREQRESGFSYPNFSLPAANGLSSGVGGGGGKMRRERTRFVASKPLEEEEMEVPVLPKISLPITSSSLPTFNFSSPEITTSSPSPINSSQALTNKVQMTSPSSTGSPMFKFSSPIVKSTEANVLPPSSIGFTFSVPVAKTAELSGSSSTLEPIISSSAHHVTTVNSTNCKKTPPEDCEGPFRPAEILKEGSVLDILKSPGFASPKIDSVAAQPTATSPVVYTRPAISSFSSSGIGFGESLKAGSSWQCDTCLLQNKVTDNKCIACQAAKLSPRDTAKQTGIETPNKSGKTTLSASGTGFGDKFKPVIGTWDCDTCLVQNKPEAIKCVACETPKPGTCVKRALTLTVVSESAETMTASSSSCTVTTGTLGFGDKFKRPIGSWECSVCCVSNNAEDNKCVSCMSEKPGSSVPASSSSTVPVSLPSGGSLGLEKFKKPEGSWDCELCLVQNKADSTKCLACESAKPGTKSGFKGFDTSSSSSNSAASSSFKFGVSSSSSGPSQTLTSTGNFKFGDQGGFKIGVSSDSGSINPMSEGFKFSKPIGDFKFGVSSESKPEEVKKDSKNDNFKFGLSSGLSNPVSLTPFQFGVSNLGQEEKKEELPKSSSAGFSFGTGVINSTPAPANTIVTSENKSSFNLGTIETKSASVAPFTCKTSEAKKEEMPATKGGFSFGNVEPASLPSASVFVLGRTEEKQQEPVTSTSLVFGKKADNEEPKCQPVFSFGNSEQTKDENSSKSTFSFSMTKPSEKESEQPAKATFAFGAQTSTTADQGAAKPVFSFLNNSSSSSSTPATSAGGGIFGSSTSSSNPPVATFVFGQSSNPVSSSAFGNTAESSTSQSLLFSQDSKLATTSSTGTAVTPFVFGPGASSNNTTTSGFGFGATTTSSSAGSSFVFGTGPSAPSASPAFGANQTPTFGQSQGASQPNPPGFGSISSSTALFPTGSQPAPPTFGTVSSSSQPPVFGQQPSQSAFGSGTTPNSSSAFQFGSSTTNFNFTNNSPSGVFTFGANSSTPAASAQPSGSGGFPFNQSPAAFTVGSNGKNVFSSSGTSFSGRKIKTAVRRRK
Chain of cNup214 (cysteine-tagged FG domain of human Nup214) (human) (P35658 whole entry, the tested form may be a part): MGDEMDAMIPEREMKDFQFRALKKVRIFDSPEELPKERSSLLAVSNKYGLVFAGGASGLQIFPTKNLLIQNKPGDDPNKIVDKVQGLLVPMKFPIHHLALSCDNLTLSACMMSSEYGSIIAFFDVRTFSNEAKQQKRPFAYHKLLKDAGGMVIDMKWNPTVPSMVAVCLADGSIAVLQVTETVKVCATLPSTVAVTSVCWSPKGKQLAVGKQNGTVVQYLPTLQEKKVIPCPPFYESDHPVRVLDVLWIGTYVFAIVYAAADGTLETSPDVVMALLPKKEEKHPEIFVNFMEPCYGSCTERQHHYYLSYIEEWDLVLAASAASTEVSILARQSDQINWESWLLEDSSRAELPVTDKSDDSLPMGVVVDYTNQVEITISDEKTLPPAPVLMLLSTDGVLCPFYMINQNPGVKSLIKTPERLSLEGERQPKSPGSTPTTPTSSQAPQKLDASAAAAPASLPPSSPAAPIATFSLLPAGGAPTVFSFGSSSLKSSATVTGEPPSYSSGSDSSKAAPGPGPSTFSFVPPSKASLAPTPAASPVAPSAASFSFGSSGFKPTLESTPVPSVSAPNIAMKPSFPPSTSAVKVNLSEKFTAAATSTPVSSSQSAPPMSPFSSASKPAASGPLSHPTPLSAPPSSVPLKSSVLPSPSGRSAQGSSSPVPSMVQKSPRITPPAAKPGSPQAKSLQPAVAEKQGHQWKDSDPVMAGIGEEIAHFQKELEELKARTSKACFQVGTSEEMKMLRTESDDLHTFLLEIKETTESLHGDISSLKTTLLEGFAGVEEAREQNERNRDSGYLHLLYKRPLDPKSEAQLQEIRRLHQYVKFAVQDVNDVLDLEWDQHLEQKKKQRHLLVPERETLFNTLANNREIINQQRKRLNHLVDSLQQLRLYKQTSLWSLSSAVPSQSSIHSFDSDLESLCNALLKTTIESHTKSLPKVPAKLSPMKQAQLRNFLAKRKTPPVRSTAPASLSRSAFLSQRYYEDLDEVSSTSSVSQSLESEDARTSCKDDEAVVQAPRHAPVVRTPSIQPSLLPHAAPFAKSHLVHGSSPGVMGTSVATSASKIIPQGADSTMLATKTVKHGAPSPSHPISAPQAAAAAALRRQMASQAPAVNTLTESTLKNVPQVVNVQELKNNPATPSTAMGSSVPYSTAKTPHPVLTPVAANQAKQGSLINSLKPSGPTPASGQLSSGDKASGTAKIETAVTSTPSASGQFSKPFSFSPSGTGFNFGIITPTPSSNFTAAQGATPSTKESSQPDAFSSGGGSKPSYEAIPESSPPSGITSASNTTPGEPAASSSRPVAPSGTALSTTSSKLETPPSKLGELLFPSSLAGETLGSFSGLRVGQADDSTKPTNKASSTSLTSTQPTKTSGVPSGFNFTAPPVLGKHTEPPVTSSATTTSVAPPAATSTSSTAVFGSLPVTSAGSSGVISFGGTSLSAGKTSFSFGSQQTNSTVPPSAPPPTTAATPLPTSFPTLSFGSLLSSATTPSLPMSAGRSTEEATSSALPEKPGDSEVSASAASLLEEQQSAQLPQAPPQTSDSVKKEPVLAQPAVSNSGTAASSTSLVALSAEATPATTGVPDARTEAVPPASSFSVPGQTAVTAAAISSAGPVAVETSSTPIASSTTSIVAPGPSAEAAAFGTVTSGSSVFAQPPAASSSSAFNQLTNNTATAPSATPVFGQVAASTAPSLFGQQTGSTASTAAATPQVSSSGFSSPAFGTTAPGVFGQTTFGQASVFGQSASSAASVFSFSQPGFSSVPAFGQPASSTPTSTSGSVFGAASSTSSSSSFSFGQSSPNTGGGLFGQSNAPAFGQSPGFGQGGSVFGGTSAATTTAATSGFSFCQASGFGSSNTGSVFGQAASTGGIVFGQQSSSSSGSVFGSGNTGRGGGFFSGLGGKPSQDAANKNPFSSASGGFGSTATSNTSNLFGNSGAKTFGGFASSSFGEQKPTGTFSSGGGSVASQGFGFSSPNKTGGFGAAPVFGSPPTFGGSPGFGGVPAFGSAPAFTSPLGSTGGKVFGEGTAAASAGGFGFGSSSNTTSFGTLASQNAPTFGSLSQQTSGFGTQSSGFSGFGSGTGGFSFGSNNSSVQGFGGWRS
Chain of cNup62 (cysteine-tagged FG domain of human Nup62) (human) (P37198 whole entry, the tested form may be a part): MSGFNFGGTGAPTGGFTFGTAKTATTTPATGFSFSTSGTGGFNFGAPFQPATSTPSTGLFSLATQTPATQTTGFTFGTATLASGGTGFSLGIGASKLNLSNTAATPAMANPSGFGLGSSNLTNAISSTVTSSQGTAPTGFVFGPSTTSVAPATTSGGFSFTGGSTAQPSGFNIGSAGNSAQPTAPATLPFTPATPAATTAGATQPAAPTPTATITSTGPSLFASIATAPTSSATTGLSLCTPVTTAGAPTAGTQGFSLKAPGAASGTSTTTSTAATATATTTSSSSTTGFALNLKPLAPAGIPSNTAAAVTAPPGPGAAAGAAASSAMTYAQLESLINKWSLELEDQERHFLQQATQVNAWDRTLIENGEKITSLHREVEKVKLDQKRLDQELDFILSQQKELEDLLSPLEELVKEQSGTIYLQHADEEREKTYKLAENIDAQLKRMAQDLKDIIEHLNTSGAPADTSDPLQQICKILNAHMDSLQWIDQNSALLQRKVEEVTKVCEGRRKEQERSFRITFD

fold higher affinity than Kapβ1 and RanGTP·Kapβ1 (strong binding phase) [1] [fold]	fold higher affinity than Kapβ1 and RanGTP·Kapβ1 (strong binding phase) [2] [fold]	fold higher affinity than Kapβ1 and RanGTP·Kapβ1 (strong binding phase) [3] [fold]	fold higher affinity than Kapβ1 and RanGTP·Kapβ1 (strong binding phase) [4] [fold]	Kd (karyopherinβ1 (human)) [nM]	Kd [2] [nM]	Substance
10	10	10	10			Kapα·Kapβ1 (from UniProt P52292;Q14974) (complex)
				35		RanGTP (from UniProt P62826 1-216) (natural protein)
				210	1300	karyopherinα (from UniProt P52292 1-529) (natural protein)
